Reference: patent US20230406885A1, “CYCLIC PEPTIDES FOR TRAPPING INTERLEUKIN-1 BETA” (MERCK SHARP & DOHME LLC, priority 2022, published 2023)
*1 amine or outer side, *2 acyl side, *3 side chain or, on linkers, in order; H or OH if unused. Primed or numbered codes have the meaning given here. [ ]: non-standard residue; d: D form. TyrEtNAc = L-tyrosine O-ethyl acetamide, (S)-3-(4-(2-acetamidoethoxy)phenyl)-2-aminopropanoic acid, CC(=O)NCCOc1ccc(C[C@H](N[*:1])C(=O)[*:2])cc1; AEF′ = (S)-2-amino-3-(6-(2-aminoethoxy)pyridin-3-yl)propanoic acid, O=C([C@H](Cc1ccc(OCCN[*:3])nc1)N[*:1])[*:2]; AbuMph = (S)-2-amino-4-morpholinobutanoic acid, O=C([C@H](CCN1CCOCC1)N[*:1])[*:2]; Ala(piperidin-4-yl) = O=C([C@H](CC1CCN([*:3])CC1)N[*:1])[*:2]; Pro(trans-4-NH2) = O=C([C@@H]1C[C@@H](N[*:3])CN1[*:1])[*:2]; Trp(βS-Me,4-F) = C[C@@H](c1c[nH]c2cccc(F)c12)[C@H](N)C(=O)O; Bip(4'-COOH) = N[C@@H](Cc1ccc(-c2ccc(C(=O)O)cc2)cc1)C(=O)O; Phe(4-COOH) = N[C@@H](Cc1ccc(C(=O)O)cc1)C(=O)O; h3Pal(5-CN) = N#Cc1cncc(CC[C@H](N)C(=O)O)c1; hTyr = N[C@@H](CCc1ccc(O)cc1)C(=O)O; hPhe = N[C@@H](CCc1ccccc1)C(=O)O; 4Pal = N[C@@H](Cc1ccncc1)C(=O)O; dDab = NCC[C@@H](N)C(=O)O; dNMeA = CN[C@H](C)C(=O)O; Dab = NCC[C@H](N)C(=O)O; Nva = CCC[C@H](N)C(=O)O

Target: Recombinant human IL-1β (BioLegend 579404) (human, UniProt P01584 117-269)
Assay: cell-based or functional assay

Binder | MRC5 IC50
cyclo([TyrEtNAc]W[Phe(4-COOH)]G[Pro(trans-4-NH2)][Trp(βS-Me,4-F)]D[dNMeA]G[Bip(4'-COOH)]W[AbuMph][dA]G) (SMILES CC(=O)NCCOc1ccc(C[C@@H]2NC(=O)CNC(=O)[C@@H](C)NC(=O)[C@H](CCN3CCOCC3)NC(=O)[C@H](Cc3c[nH]c4ccccc34)NC(=O)[C@H](Cc3ccc(-c4ccc(C(=O)O)cc4)cc3)NC(=O)CNC(=O)[C@@H](C)N(C)C(=O)[C@H](CC(=O)O)NC(=O)[C@H]([C@@H](C)c3c[nH]c4cccc(F)c34)NC(=O)[C@@H]3C[C@@H](N)CN3C(=O)CNC(=O)[C@H](Cc3ccc(C(=O)O)cc3)NC(=O)[C@H](Cc3c[nH]c4ccccc34)NC2=O)cc1) [SEQ ID NO: 162 (Example No. 162)] | 0.749 nM
cyclo([TyrEtNAc]W[Phe(4-COOH)]G[Pro(trans-4-NH2)][Trp(βS-Me,4-F)]D[dNMeA]G[Bip(4'-COOH)]WL[dK][hTyr]) (SMILES CC(=O)NCCOc1ccc(C[C@@H]2NC(=O)[C@H](CCc3ccc(O)cc3)NC(=O)[C@@H](CCCCN)NC(=O)[C@H](CC(C)C)NC(=O)[C@H](Cc3c[nH]c4ccccc34)NC(=O)[C@H](Cc3ccc(-c4ccc(C(=O)O)cc4)cc3)NC(=O)CNC(=O)[C@@H](C)N(C)C(=O)[C@H](CC(=O)O)NC(=O)[C@H]([C@@H](C)c3c[nH]c4cccc(F)c34)NC(=O)[C@@H]3C[C@@H](N)CN3C(=O)CNC(=O)[C@H](Cc3ccc(C(=O)O)cc3)NC(=O)[C@H](Cc3c[nH]c4ccccc34)NC2=O)cc1) [SEQ ID NO: 169 (Example No. 169)] | 0.112 nM
cyclo([TyrEtNAc]W[Phe(4-COOH)]G[Pro(trans-4-NH2)][Trp(βS-Me,4-F)]D[dNMeA]G[Bip(4'-COOH)]KL[dDab][hTyr]) (SMILES CC(=O)NCCOc1ccc(C[C@@H]2NC(=O)[C@H](CCc3ccc(O)cc3)NC(=O)[C@@H](CCN)NC(=O)[C@H](CC(C)C)NC(=O)[C@H](CCCCN)NC(=O)[C@H](Cc3ccc(-c4ccc(C(=O)O)cc4)cc3)NC(=O)CNC(=O)[C@@H](C)N(C)C(=O)[C@H](CC(=O)O)NC(=O)[C@H]([C@@H](C)c3c[nH]c4cccc(F)c34)NC(=O)[C@@H]3C[C@@H](N)CN3C(=O)CNC(=O)[C@H](Cc3ccc(C(=O)O)cc3)NC(=O)[C@H](Cc3c[nH]c4ccccc34)NC2=O)cc1) [SEQ ID NO: 160 (Example No. 160)] | 0.522 nM
cyclo([TyrEtNAc]W[Phe(4-COOH)]G[Pro(trans-4-NH2)][Trp(βS-Me,4-F)]D[dNMeA]G[Bip(4'-COOH)]WL[dA][hTyr]) (SMILES CC(=O)NCCOc1ccc(C[C@@H]2NC(=O)[C@H](CCc3ccc(O)cc3)NC(=O)[C@@H](C)NC(=O)[C@H](CC(C)C)NC(=O)[C@H](Cc3c[nH]c4ccccc34)NC(=O)[C@H](Cc3ccc(-c4ccc(C(=O)O)cc4)cc3)NC(=O)CNC(=O)[C@@H](C)N(C)C(=O)[C@H](CC(=O)O)NC(=O)[C@H]([C@@H](C)c3c[nH]c4cccc(F)c34)NC(=O)[C@@H]3C[C@@H](N)CN3C(=O)CNC(=O)[C@H](Cc3ccc(C(=O)O)cc3)NC(=O)[C@H](Cc3c[nH]c4ccccc34)NC2=O)cc1) [SEQ ID NO: 167 (Example No. 167)] | 0.136 nM
cyclo([TyrEtNAc]W[Phe(4-COOH)]G[Pro(trans-4-NH2)][Trp(βS-Me,4-F)]D[dNMeA]G[Bip(4'-COOH)]WL[dA][Ala(piperidin-4-yl)]) (SMILES CC(=O)NCCOc1ccc(C[C@@H]2NC(=O)[C@H](CC3CCNCC3)NC(=O)[C@@H](C)NC(=O)[C@H](CC(C)C)NC(=O)[C@H](Cc3c[nH]c4ccccc34)NC(=O)[C@H](Cc3ccc(-c4ccc(C(=O)O)cc4)cc3)NC(=O)CNC(=O)[C@@H](C)N(C)C(=O)[C@H](CC(=O)O)NC(=O)[C@H]([C@@H](C)c3c[nH]c4cccc(F)c34)NC(=O)[C@@H]3C[C@@H](N)CN3C(=O)CNC(=O)[C@H](Cc3ccc(C(=O)O)cc3)NC(=O)[C@H](Cc3c[nH]c4ccccc34)NC2=O)cc1) [SEQ ID NO: 165 (Example No. 165)] | 0.781 nM
cyclo([TyrEtNAc]W[Phe(4-COOH)]G[Pro(trans-4-NH2)][Trp(βS-Me,4-F)]D[dNMeA]G[Bip(4'-COOH)]KL[dA][hTyr]) (SMILES CC(=O)NCCOc1ccc(C[C@@H]2NC(=O)[C@H](CCc3ccc(O)cc3)NC(=O)[C@@H](C)NC(=O)[C@H](CC(C)C)NC(=O)[C@H](CCCCN)NC(=O)[C@H](Cc3ccc(-c4ccc(C(=O)O)cc4)cc3)NC(=O)CNC(=O)[C@@H](C)N(C)C(=O)[C@H](CC(=O)O)NC(=O)[C@H]([C@@H](C)c3c[nH]c4cccc(F)c34)NC(=O)[C@@H]3C[C@@H](N)CN3C(=O)CNC(=O)[C@H](Cc3ccc(C(=O)O)cc3)NC(=O)[C@H](Cc3c[nH]c4ccccc34)NC2=O)cc1) [SEQ ID NO: 159 (Example No. 159)] | 0.118 nM
cyclo([TyrEtNAc]W[Phe(4-COOH)]G[Pro(trans-4-NH2)][Trp(βS-Me,4-F)]D[dNMeA]G[Bip(4'-COOH)]WL[dDab][hTyr]) (SMILES CC(=O)NCCOc1ccc(C[C@@H]2NC(=O)[C@H](CCc3ccc(O)cc3)NC(=O)[C@@H](CCN)NC(=O)[C@H](CC(C)C)NC(=O)[C@H](Cc3c[nH]c4ccccc34)NC(=O)[C@H](Cc3ccc(-c4ccc(C(=O)O)cc4)cc3)NC(=O)CNC(=O)[C@@H](C)N(C)C(=O)[C@H](CC(=O)O)NC(=O)[C@H]([C@@H](C)c3c[nH]c4cccc(F)c34)NC(=O)[C@@H]3C[C@@H](N)CN3C(=O)CNC(=O)[C@H](Cc3ccc(C(=O)O)cc3)NC(=O)[C@H](Cc3c[nH]c4ccccc34)NC2=O)cc1) [SEQ ID NO: 168 (Example No. 168)] | 0.0847 nM
cyclo([TyrEtNAc]W[Phe(4-COOH)]G[Pro(trans-4-NH2)][Trp(βS-Me,4-F)]D[dNMeA]G[Bip(4'-COOH)]KL[dS][hTyr]) (SMILES CC(=O)NCCOc1ccc(C[C@@H]2NC(=O)[C@H](CCc3ccc(O)cc3)NC(=O)[C@@H](CO)NC(=O)[C@H](CC(C)C)NC(=O)[C@H](CCCCN)NC(=O)[C@H](Cc3ccc(-c4ccc(C(=O)O)cc4)cc3)NC(=O)CNC(=O)[C@@H](C)N(C)C(=O)[C@H](CC(=O)O)NC(=O)[C@H]([C@@H](C)c3c[nH]c4cccc(F)c34)NC(=O)[C@@H]3C[C@@H](N)CN3C(=O)CNC(=O)[C@H](Cc3ccc(C(=O)O)cc3)NC(=O)[C@H](Cc3c[nH]c4ccccc34)NC2=O)cc1) [SEQ ID NO: 161 (Example No. 161)] | 0.483 nM
cyclo([TyrEtNAc]W[Phe(4-COOH)]G[Pro(trans-4-NH2)][Trp(βS-Me,4-F)]D[dNMeA]G[Bip(4'-COOH)]WL[dA][hPhe]) (SMILES CC(=O)NCCOc1ccc(C[C@@H]2NC(=O)[C@H](CCc3ccccc3)NC(=O)[C@@H](C)NC(=O)[C@H](CC(C)C)NC(=O)[C@H](Cc3c[nH]c4ccccc34)NC(=O)[C@H](Cc3ccc(-c4ccc(C(=O)O)cc4)cc3)NC(=O)CNC(=O)[C@@H](C)N(C)C(=O)[C@H](CC(=O)O)NC(=O)[C@H]([C@@H](C)c3c[nH]c4cccc(F)c34)NC(=O)[C@@H]3C[C@@H](N)CN3C(=O)CNC(=O)[C@H](Cc3ccc(C(=O)O)cc3)NC(=O)[C@H](Cc3c[nH]c4ccccc34)NC2=O)cc1) [SEQ ID NO: 166 (Example No. 166)] | 0.149 nM
cyclo([TyrEtNAc]W[Phe(4-COOH)]G[Pro(trans-4-NH2)][Trp(βS-Me,4-F)]D[dNMeA]G[Bip(4'-COOH)]W[Dab][dA][hPhe]) (SMILES CC(=O)NCCOc1ccc(C[C@@H]2NC(=O)[C@H](CCc3ccccc3)NC(=O)[C@@H](C)NC(=O)[C@H](CCN)NC(=O)[C@H](Cc3c[nH]c4ccccc34)NC(=O)[C@H](Cc3ccc(-c4ccc(C(=O)O)cc4)cc3)NC(=O)CNC(=O)[C@@H](C)N(C)C(=O)[C@H](CC(=O)O)NC(=O)[C@H]([C@@H](C)c3c[nH]c4cccc(F)c34)NC(=O)[C@@H]3C[C@@H](N)CN3C(=O)CNC(=O)[C@H](Cc3ccc(C(=O)O)cc3)NC(=O)[C@H](Cc3c[nH]c4ccccc34)NC2=O)cc1) [SEQ ID NO: 163 (Example No. 163)] | 0.156 nM
cyclo([TyrEtNAc]W[Phe(4-COOH)]G[Pro(trans-4-NH2)][Trp(βS-Me,4-F)]D[dNMeA]G[Bip(4'-COOH)]KL[dA][h3Pal(5-CN)]) (SMILES CC(=O)NCCOc1ccc(C[C@@H]2NC(=O)[C@H](CCc3cncc(C#N)c3)NC(=O)[C@@H](C)NC(=O)[C@H](CC(C)C)NC(=O)[C@H](CCCCN)NC(=O)[C@H](Cc3ccc(-c4ccc(C(=O)O)cc4)cc3)NC(=O)CNC(=O)[C@@H](C)N(C)C(=O)[C@H](CC(=O)O)NC(=O)[C@H]([C@@H](C)c3c[nH]c4cccc(F)c34)NC(=O)[C@@H]3C[C@@H](N)CN3C(=O)CNC(=O)[C@H](Cc3ccc(C(=O)O)cc3)NC(=O)[C@H](Cc3c[nH]c4ccccc34)NC2=O)cc1) [SEQ ID NO: 158 (Example No. 158)] | 0.0257 nM
cyclo([TyrEtNAc]W[Phe(4-COOH)]G[Pro(trans-4-NH2)][Trp(βS-Me,4-F)]D[dNMeA]G[Bip(4'-COOH)][4Pal][Nva][dA][hTyr]) (SMILES CCC[C@@H]1NC(=O)[C@H](Cc2ccncc2)NC(=O)[C@H](Cc2ccc(-c3ccc(C(=O)O)cc3)cc2)NC(=O)CNC(=O)[C@@H](C)N(C)C(=O)[C@H](CC(=O)O)NC(=O)[C@H]([C@@H](C)c2c[nH]c3cccc(F)c23)NC(=O)[C@@H]2C[C@@H](N)CN2C(=O)CNC(=O)[C@H](Cc2ccc(C(=O)O)cc2)NC(=O)[C@H](Cc2c[nH]c3ccccc23)NC(=O)[C@H](Cc2ccc(OCCNC(C)=O)cc2)NC(=O)[C@H](CCc2ccc(O)cc2)NC(=O)[C@@H](C)NC1=O) [SEQ ID NO: 157 (Example No. 157)] | 0.403 nM
cyclo([TyrEtNAc]W[Phe(4-COOH)]G[Pro(trans-4-NH2)][Trp(βS-Me,4-F)]D[dNMeA]G[Bip(4'-COOH)]WL[dA][AEF′]) [SEQ ID NO: 164 (Example No. 164)] | 0.459 nM
